# Laboratory results published in paper PMC11532494 (Nature Communications, 2024).
# Values joined by “and” are separate entries in the source; they are usually repeats but may differ in a detail not shown here. Identical values can stand only once. Like-named read-outs stand apart in the source and are kept apart here. No end group written: not given here. *: point of attachment. AMC = Cc1cc(=O)oc2cc(N*)ccc12
# Legend:
# Controls [1] = assay type: biochemical
# PsApaH (4) = PsApaH (4) (Pseudomonas sp. M30-35, UniProt A0A1Y0KY79); assay type: biochemical; details: for RFU means, PsApaH (4) / RFU*2 means, PsApaH (4): means of two measurements; for [AMC] (nM), PsApaH (4), means / [AMC] (nM), PsApaH (4): substrate screening; for [AMC] (nM), PsApaH (4), means: mean of two measurements
# Method: (§1) Experiments with SIRT2 and SIRT5 were supplemented with NAD^+ (500 µM). Thereafter, a solution of trypsin (25 µL, 5.0 mg/mL; final concentration of 2.5 mg/mL) was added, and the development of the assay was allowed to proceed for 90 min at room temperature before fluorescence analysis. […] To this end, a single category is given to all conversions >48% on the heatmap. […] For the H4-derived peptide LGKbio no positive control was available.
# LcApaH (3) = LcApaH (3) (Legionella cherrii, UniProt A0A0W0SGS1); assay type: biochemical
# VsHdaH (1b) = assay type: biochemical, Vibrio sp.; details: for RFU means, VsHdaH (1b) / RFU*2 means, VsHdaH (1b): means of two measurements; for [AMC] (nM), VsHdaH (1b), means / [AMC] (nM), VsHdaH (1b): substrate screening; for [AMC] (nM), VsHdaH (1b), means: mean of two measurements
# RwDmhA (1b) = RwDmhA (1b) (Rhizorhabdus wittichii, UniProt A0A067XIQ6); assay type: biochemical
# VcHdaH (5b) = assay type: biochemical, Vibrio cholerae; details: for RFU means, VcHdaH (5b) / RFU*2 means, VcHdaH (5b): means of two measurements; for [AMC] (nM), VcHdaH (5b), means: substrate screening, mean of two measurements
# BsAcuC (2c) = biological target: T1, BsAcuC (2c) (Bacillus subtilis, UniProt P39067); assay: Substrate screening assay (acyl-peptide-AMC); assay type: biochemical; details: for RFU means, BsAcuC (2c) / RFU*2 means, BsAcuC (2c): means of two measurements; for [AMC] (nM), BsAcuC (2c), means: substrate screening, mean of two measurements
# T1 construct: made in house; host or cells: E. coli BL21 (DE3)
# T1 sequence (P39067 1-387): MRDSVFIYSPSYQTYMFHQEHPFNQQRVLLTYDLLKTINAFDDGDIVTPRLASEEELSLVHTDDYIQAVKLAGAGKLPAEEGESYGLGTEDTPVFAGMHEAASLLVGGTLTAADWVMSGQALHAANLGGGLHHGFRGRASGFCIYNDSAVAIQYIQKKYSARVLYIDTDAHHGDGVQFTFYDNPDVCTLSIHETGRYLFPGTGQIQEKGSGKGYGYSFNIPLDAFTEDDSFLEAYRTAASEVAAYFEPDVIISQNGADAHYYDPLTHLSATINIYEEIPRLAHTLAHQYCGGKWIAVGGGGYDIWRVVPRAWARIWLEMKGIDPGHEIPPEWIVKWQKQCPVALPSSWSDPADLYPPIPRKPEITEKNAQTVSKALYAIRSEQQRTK
# Method: as §1
# RsPrpH (1b) = assay: Substrate screening assay (acyl-peptide-AMC); assay type: biochemical, Rhizorhabdus sp.
# LpApaH (3) = LpApaH (3) (Legionella pneumophila, UniProt A0A2S6EWV0); assay type: biochemical
# Controls [2] = assay type: biochemical; remark: listed apart in the source
# KpHdaH (1b) = KpHdaH (1b) (Klebsiella pneumoniae, UniProt A0A377Z5F6); assay type: biochemical; details: for RFU means, KpHdaH (1b) / RFU*2 means, KpHdaH (1b): means of two measurements; for [AMC] (nM), KpHdaH (1b), means / [AMC] (nM), KpHdaH (1b): substrate screening; for [AMC] (nM), KpHdaH (1b), means: mean of two measurements
# [3] = two measurements, single values
# [4] = substrate screening, mean of two measurements
# [5] = substrate screening, measurement 1 of two
# [6] = substrate screening, measurement 2 of two
substance,measurement,setting,value
"QPKKlau (QPKK-{AMC}; not fully specified (residue 4); printed as QPKKlau; also: lauroyl-lysine (which Lys not given here); UniProt P04637 317-320, looked up, fragment)","[AMC] (nM), controls, means",Controls [1],11337.89 nM
same,"RFU means, PsApaH (4)",PsApaH (4),131 RFU
same,"RFU*2 means, PsApaH (4)",PsApaH (4),262 RFU*2
same,"[AMC] (nM), PsApaH (4), means",PsApaH (4),127.93 nM
same,"[AMC] (nM), PsApaH (4)",PsApaH (4); measurement 1 of two,191.41 nM
same,"[AMC] (nM), PsApaH (4)",PsApaH (4); measurement 2 of two,64.45 nM
same,"RFU means, LcApaH (3)",LcApaH (3),6.5 RFU
same,"RFU*2 means, LcApaH (3)",LcApaH (3),13 RFU*2
same,"[AMC] (nM), LcApaH (3), means",LcApaH (3),6.35 nM
same,"RFU means, VsHdaH (1b)",VsHdaH (1b),-74 RFU
same,"RFU*2 means, VsHdaH (1b)",VsHdaH (1b),-148 RFU*2
same,"[AMC] (nM), VsHdaH (1b), means",VsHdaH (1b),-72.27 nM
same,"[AMC] (nM), VsHdaH (1b)",VsHdaH (1b); measurement 1 of two,-150.39 nM
same,"[AMC] (nM), VsHdaH (1b)",VsHdaH (1b); measurement 2 of two,5.86 nM
same,"RFU means, RwDmhA (1b)",RwDmhA (1b),-41 RFU
same,"RFU*2 means, RwDmhA (1b)",RwDmhA (1b),-82 RFU*2
same,"[AMC] (nM), RwDmhA (1b), means",RwDmhA (1b),-40.04 nM
same,"RFU means, VcHdaH (5b)",VcHdaH (5b),-82 RFU
same,"RFU*2 means, VcHdaH (5b)",VcHdaH (5b),-164 RFU*2
same,"[AMC] (nM), VcHdaH (5b), means",VcHdaH (5b),-80.08 nM
same,"RFU means, BsAcuC (2c)",BsAcuC (2c),849.5 RFU
same,"RFU*2 means, BsAcuC (2c)",BsAcuC (2c),1699 RFU*2
same,"[AMC] (nM), BsAcuC (2c), means",BsAcuC (2c),829.59 nM
same,"RFU*2, BsAcuC (2c)",BsAcuC (2c); [3],2008 RFU*2 and 1390 RFU*2
same,"RFU means, RsPrpH (1b)",RsPrpH (1b),-143.5 RFU
same,"RFU*2 means, RsPrpH (1b)",RsPrpH (1b),-287 RFU*2
same,"[AMC] (nM), RsPrpH (1b), means",RsPrpH (1b),-140.14 nM
same,"RFU means, LpApaH (3)",LpApaH (3),10.5 RFU
same,"RFU*2 means, LpApaH (3)",LpApaH (3),21 RFU*2
same,"[AMC] (nM), LpApaH (3), means",LpApaH (3),10.25 nM
same,"RFU means, controls",Controls [2],11610 RFU
same,"RFU*2, controls",Controls [2],21150 RFU*2 and 25290 RFU*2
same,"RFU*2 means, controls",Controls [2],23220 RFU*2
same,"RFU, controls",Controls [2],10575 RFU and 12645 RFU
same,"RFU means, KpHdaH (1b)",KpHdaH (1b),-136.5 RFU
same,"RFU*2 means, KpHdaH (1b)",KpHdaH (1b),-273 RFU*2
same,"[AMC] (nM), KpHdaH (1b), means",KpHdaH (1b),-133.30 nM
same,"[AMC] (nM), KpHdaH (1b)",KpHdaH (1b); measurement 1 of two,-172.85 nM
same,"[AMC] (nM), KpHdaH (1b)",KpHdaH (1b); measurement 2 of two,-93.75 nM
"QPKKmyr (QPKK-{AMC}; not fully specified (residue 4); printed as QPKKmyr; also: myristoyl-lysine (which Lys not given here); UniProt P04637 317-320, looked up, fragment)","[AMC] (nM), controls, means",Controls [1],6615.23 nM
same,"RFU means, PsApaH (4)",PsApaH (4),76.5 RFU
same,"RFU*2 means, PsApaH (4)",PsApaH (4),153 RFU*2
same,"[AMC] (nM), PsApaH (4), means",PsApaH (4),74.71 nM
same,"[AMC] (nM), PsApaH (4)",PsApaH (4); measurement 1 of two,39.06 nM
same,"[AMC] (nM), PsApaH (4)",PsApaH (4); measurement 2 of two,110.35 nM
same,"RFU means, LcApaH (3)",LcApaH (3),256.5 RFU
same,"RFU*2 means, LcApaH (3)",LcApaH (3),513 RFU*2
same,"[AMC] (nM), LcApaH (3), means",LcApaH (3),250.49 nM
same,"RFU means, VsHdaH (1b)",VsHdaH (1b),-206 RFU
same,"RFU*2 means, VsHdaH (1b)",VsHdaH (1b),-412 RFU*2
same,"[AMC] (nM), VsHdaH (1b), means",VsHdaH (1b),-201.17 nM
same,"[AMC] (nM), VsHdaH (1b)",VsHdaH (1b); measurement 1 of two,172.85 nM
same,"[AMC] (nM), VsHdaH (1b)",VsHdaH (1b); measurement 2 of two,-575.20 nM
same,"RFU means, RwDmhA (1b)",RwDmhA (1b); means of two measurements,-605.5 RFU
same,"RFU*2 means, RwDmhA (1b)",RwDmhA (1b); means of two measurements,-1211 RFU*2
same,"[AMC] (nM), RwDmhA (1b), means",RwDmhA (1b); [4],-591.31 nM
same,"[AMC] (nM), RwDmhA (1b)",RwDmhA (1b); [5],-337.89 nM
same,"[AMC] (nM), RwDmhA (1b)",RwDmhA (1b); [6],-844.73 nM
same,"RFU means, VcHdaH (5b)",VcHdaH (5b),-187.5 RFU
same,"RFU*2 means, VcHdaH (5b)",VcHdaH (5b),-375 RFU*2
same,"[AMC] (nM), VcHdaH (5b), means",VcHdaH (5b),-183.11 nM
same,"RFU means, BsAcuC (2c)",BsAcuC (2c),540 RFU
same,"RFU*2 means, BsAcuC (2c)",BsAcuC (2c),1080 RFU*2
same,"[AMC] (nM), BsAcuC (2c), means",BsAcuC (2c),527.34 nM
same,"RFU means, RsPrpH (1b)",RsPrpH (1b); means of two measurements,-466 RFU
same,"RFU*2 means, RsPrpH (1b)",RsPrpH (1b); means of two measurements,-932 RFU*2
same,"[AMC] (nM), RsPrpH (1b), means",RsPrpH (1b); [4],-455.08 nM
same,"[AMC] (nM), RsPrpH (1b)",RsPrpH (1b); [5],-105.47 nM
same,"[AMC] (nM), RsPrpH (1b)",RsPrpH (1b); [6],-804.69 nM
same,"RFU means, LpApaH (3)",LpApaH (3),459 RFU
same,"RFU*2, LpApaH (3)",LpApaH (3),820 RFU*2 and 1016 RFU*2
same,"RFU*2 means, LpApaH (3)",LpApaH (3),918 RFU*2
same,"RFU, LpApaH (3)",LpApaH (3),410 RFU and 508 RFU
same,"[AMC] (nM), LpApaH (3)",LpApaH (3),400.39 nM and 496.09 nM
same,"[AMC] (nM), LpApaH (3), means",LpApaH (3),448.24 nM
same,"RFU means, controls",Controls [2],6774 RFU
same,"RFU*2, controls",Controls [2],12310 RFU*2 and 14786 RFU*2
same,"RFU*2 means, controls",Controls [2],13548 RFU*2
same,"RFU, controls",Controls [2],6155 RFU and 7393 RFU
same,"RFU means, KpHdaH (1b)",KpHdaH (1b),147 RFU
same,"RFU*2 means, KpHdaH (1b)",KpHdaH (1b),294 RFU*2
same,"[AMC] (nM), KpHdaH (1b), means",KpHdaH (1b),143.55 nM
same,"[AMC] (nM), KpHdaH (1b)",KpHdaH (1b); measurement 1 of two,173.83 nM
same,"[AMC] (nM), KpHdaH (1b)",KpHdaH (1b); measurement 2 of two,113.28 nM
same,"RFU*2, KpHdaH (1b)",KpHdaH (1b); [3],356 RFU*2 and 232 RFU*2
same,"RFU, KpHdaH (1b)",KpHdaH (1b); [3],178 RFU and 116 RFU
